Measurements as given in US20180142000A1.
Where “and” joins values, the source holds several entries; their conditions need not be identical. Equal values may be shown once. Read-outs that look alike come from different tables or passages of the source.

B1: FlagV6M (VHH)
VHH: QVKLEESGGGLVQAGGSLRVSCTASVSTFSINALGWYRQAPGKARELVAAIGSDGTVYYTDSVKGRFTISRDNAKNTVSLQMSSLKPEDTAVYYCNAAGKRIGSDGSIWFAVASFGSWGQGTQVTVSS
B2: FlagV1M (VHH)
VHH: QVKLEESGGGLVQAGGSRRLSCATSGLTFRNFHMAWFRQVAGKEREVVAAISWSRDRQYYPDPVKGRFTITRDNAKNTVYLQMNSLKPEDTAVYYCAARTASASGDWYKGSYQYWGQGTQVTVSS
B3: FlagV1F23MDSB (VHH)
VHH: QVQLVESGGGLVQAGGSRRLSCATSGLTFRNFHMAWFRQVAGKEREVVCAISWSRDRQYYPDPVKGRFTCTRDNAKNTVYLQMNSLKPEDTAVYYCAARTASASGDWYKGSYQYWGQGTQVTVSS
B4: FlagV1MDSB (VHH)
VHH: QVKLEESGGGLVQAGGSRRLSCATSGLTFRNFHMAWFRQVAGKEREVVCAISWSRDRQYYPDPVKGRFTCTRDNAKNTVYLQMNSLKPEDTAVYYCAARTASASGDWYKGSYQYWGQGTQVTVSS
B5: FlagV1F23M (VHH)
VHH: QVQLVESGGGLVQAGGSRRLSCATSGLTFRNFHMAWFRQVAGKEREVVAAISWSRDRQYYPDPVKGRFTITRDNAKNTVYLQMNSLKPEDTAVYYCAARTASASGDWYKGSYQYWGQGTQVTVSS

Tests used:
[1] = molecular target: C. jejuni (strain 81-176) flagella (Campylobacter jejuni strain 81-176)
[2] = molecular target: C. jejuni (strain 81-176) flagella (Campylobacter jejuni strain 81-176); test: ELISA on coated flagella, approximate affinity
[3] = molecular target: C. jejuni (strain 81-176) flagella (Campylobacter jejuni strain 81-176); test: SPR (Biacore 3000), single-cycle kinetics, […]

Row | Binder | Kd [1] | koff [1] | kon [1] | Kd [2] | Kd [3] | koff [3] | kon [3]
1 | B1 | 25 nM | 0.03 s⁻¹ | 1e+06 M⁻¹ s⁻¹ |  |  |  | 
2 | B2 |  |  |  | 20 nM and 30 nM | 23.9 nM | 0.00563 s⁻¹ | 236000 M⁻¹ s⁻¹
3 | B3 |  |  |  |  | 17.3 nM | 0.00286 s⁻¹ | 165000 M⁻¹ s⁻¹
4 | B4 |  |  |  |  | 18.2 nM | 0.0028 s⁻¹ | 153000 M⁻¹ s⁻¹
5 | B5 |  |  |  |  | 18.6 nM | 0.00426 s⁻¹ | 229000 M⁻¹ s⁻¹
